Laboratory results as given in publication doi:10.1101/2023.10.05.561050 (bioRxiv, 2023).
Each block holds one molecule with its values, some of them ahead of it.

What was measured:
Assay in all cases: PIE-FCCS
[1] = target: Myr-GCN4-FP (dimer control)
[2] = target: Myr-GCN4-EGFRk-FP (multimer control)
PIE-FCCS = target: the molecule itself

fc (median cross-correlation value) [1]: 0.14
Molecule: Myr-GCN4-FP (dimer control)

fc (median cross-correlation value) [2]: 0.23
Molecule: Myr-GCN4-EGFRk-FP (multimer control)

B1: Myr-ICD-ΔS (EphA2 intracellular domain without the SAM domain, AA 559-882, with a membrane localization sequence) (domain or fragment)
chain: HRRRKNQRARQSPEDVYFSKSEQLKPLKTYVDPHTYEDPNQAVLKFTTEIHPSCVTRQKVIGAGEFGEVYKGMLKTSSGKKEVPVAIKTLKAGYTEKQRVDFLGEAGIMGQFSHHNIIRLEGVISKYKPMMIITEYMENGALDKFLREKDGEFSVLQLVGMLRGIAAGMKYLANMNYVHRDLAARNILVNSNLVCKVSDFGLSRVLEDDPEATYTTSGGKIPIRWTAPEAISYRKFTSASDVWSFGIVMWEVMTYGERPYWELSNHEVMKAINDGFRLPTPMDCPSAIYQLMMQCWQQERARRPKFADIVSILDKLIRAPDSLK
modifications: N-terminal myristoylation of the c-Src-derived peptide
stoichiometry N (PIE-FCCS): 2
